Laboratory results reported in patent US20090041783A1 (MOCHIDA PHARMACEUTICAL, published 2009).

Key:
[1] = target: T1, human GPVI extracellular region-human Fc fusion protein (hGPVI-hFc) (human); test: SPR (BIACORE3000), GPVI-Fc on CM5 chip, antibody 1.25-40 nM as analyte, bivalent analyte fit
T1 construct: Expressed in COS-1, purified on Protein A; also called GPVI-HHH-hFc; hGPVIHHH-hFc
Protocol: (§1) Dissociation constant for the anti-GPVI monoclonal antibody prepared in EXAMPLE 2 was measured using protein interaction analyzer BIACORE3000 (BIACORE). That is, to sensor chip, CM5 chip (BIACORE), GPVI substitution mutant (hGPVIHHH-hFc and FFH-hFc) that is prepared in EXAMPLE 1 was linked according to the manual. Then each antibody was diluted with HBS-EP buffer solution (BIACORE) to prepare a series of diluted solution from 1.25 to 40 nM, and analyzed with BIACORE3000. Every each antibody bound chip, the chip was regenerated with glycine buffer solution at pH1.5. The obtained result was analyzed with Bivalent analyte, the evaluation software (BIACORE) to calculate dissociation constant. It was shown that each anti-GPVI monoclonal antibody has a sufficient affinity to GPVI-HHH-hFc.

[2] = target: T2, cynomolgus monkey D1D2-human D3 chimeric GPVI-human Fc fusion protein (GPVI-FFH-hFc) (cynomolgus monkey (D1, D2) and human …); test: as above
T2 construct: also called Monkey GPVI
Protocol: as §1

[3] = target: T1, human GPVI extracellular region-human …; test: ELISA on immobilised hGPVI-hFc, peroxidase-labelled anti-mouse immunoglobulin antibody
Protocol: Binding activity to the antigen was detected by ELISA. To each well of immunoplate immobilized with hGPVI-hFc (prepared by the method described in EXAMPLE 2 and the like), F1232-37-2 antibody and F1232-37-2 PEGylated antibody, wherein both antibodies had been adjusted to the same concentration, was added and the plate was incubated at 37° C. for one hour. The well was washed with saline containing 0.05% Tween20. Then 50 μL of peroxidase-labeled anti-mouse immunoglobulin antibody (DAKO, P260), which had been diluted by 1000-fold with 10% rabbit serum-containing D-PBS, was added to each well. After incubation at 37° C. for one hour, coloring reaction by the TMB substrate was done to measure an absorbance at 450 nm with plate spectro-photometer (Molecular Devices, Wako). As a result, it was confirmed that both F1232-37-2 antibody and PEGylated F1232-37-2 antibody have almost equivalent binding activity.

[4] = target: T1, human GPVI extracellular region-human …; test: ELISA on immobilised hGPVI-hFc (GPVI antigen binding assay of Example 31)
[5] = target: T1, human GPVI extracellular region-human …; test: ELISA of hybridoma culture supernatant on coated hGPVI-hFc (selection criterion)
Protocol: Next, culture supernatant was added to each well and incubated at 37° C. for one hour. After incubation, the well was washed three times with the saline containing 0.05% Tween20. Peroxidase-labeled anti-mouse immunoglobulin antibody (DAKO, P260) was 1000-fold diluted with D-PBS containing 10% rabbit serum and added to each well at 50 μL. After incubation at 37° C. for one hour, washing in a similar manner was performed and TMB solution (BioFix) was added to each well. After ten minutes at room temperature, the reaction was terminated with 0.5 M sulfuric acid solution. Subsequently, absorbance at 450 nm was measured with the plate spectrophotometer (Multiscan JX, Dainippon Pharmaceutical). As a result, the cell whose culture supernatant reacted to hGPVI-hFc was selected and a cloning with limiting dilution method (“The Introduction to Monoclonal Antibody Experimental Procedure” written by Tamie Andoh and Takeshi Chiba (Kodansha, p 83)) was performed. Eight days later, screening was done in a similar manner and the antibody which reacts to hGPVI-hFc was selected.
After one week, hybridoma, which produces a desired antibody was screened using the binding property to hGPVI-hFc and hGPVI-mL9-hFc prepared in EXAMPLE 7 as an index. That is, the purified hGPVI-hFc or hGPVI-mL9-hFc, which was prepared in EXAMPLE 1, was diluted with D-PBS (pH7.4) to 1 μg/mL. And 50 μL/well of the solution was added to make hGPVI-hFc or hGPVI-mL9-hFc-coated plate using the same method as that of EXAMPLE 2. Next, a culture supernatant was added to each well, and after incubation at room temperature for one hour, by the same method as that of EXAMPLE 2, using peroxidase-labeled anti-mouse immunoglobulin antibody (DAKO, P260) a reaction was performed to measure an absorbance. As a result, the cell producing an antibody that binds to the purified hGPVI-hFc (absorbance: equal to or more than one), but not hGPVI-mL9-hFc (abdorbance: equal to or less than 0.5) was selected and cloned by the method described in EXAMPLE 2. Eight through ten days later, a screening was done as with the similar way to obtain a hybridoma producing an L9-specific mouse anti-human GPVI antibody. As with EXAMPLE 2B (3), the obtained hybridoma was cultured and a monoclonal antibody was purified. The sub-type of each antibody was determined using IsoStrip Mouse Monoclonal antibody Isotyping Kit (Roche).

[6] = target: T1, human GPVI extracellular region-human …; test: ELISA on immobilised hGPVI-hFc; + A450 0.5-1.0, ++ 1.0-2.0, +++ more than 2.0
Protocol: The hGPVI-hFc prepared by EXAMPLE 1B was diluted with D-PBS to 2 μg/mL and added to immunoplate (Maxisorp NUNC) at 50 μL/well. After incubation at 37° C. for one hour, the well was washed five times with ion-exchanged water, and D-PBS (pH7.4) containing 2% StabilGuard (Surmodics) was added to each well in 100 μL for blocking. Next, culture supernatant was added to each well and incubated at 37° C. for one hour. After incubation, the well was washed three times with the saline containing 0.05% Tween20. Peroxidase-labeled anti-mouse immunoglobulin antibody (DAKO, P260) was 1000-fold diluted with D-PBS containing 10% rabbit serum and added to each well at 50 μL. After incubation at 37° C. for one hour, washing in a similar manner was performed and TMB solution (BioFix) was added to each well. After ten minutes at room temperature, the reaction was terminated with 0.5 M sulfuric acid solution. Subsequently, absorbance at 450 nm was measured with the plate spectrophotometer (Multiscan JX, Dainippon Pharmaceutical). As a result, the cell whose culture supernatant reacted to hGPVI-hFc was selected and a cloning with limiting dilution method (“The Introduction to Monoclonal Antibody Experimental Procedure” written by Tamie Andoh and Takeshi Chiba (Kodansha, p 83)) was performed. Eight days later, screening was done in a similar manner and the antibody which reacts to hGPVI-hFc was selected.
(§2) To analyze a property for each antibody obtained in EXAMPLE 13, binding to human GPVI-hFc, competition with F1232-37-2 described in EXAMPLE 4 and specificity for L9 loop were investigated. That is, as for the binding to human GPVI, according to the method of EXAMPLE 2, a binding activity to immobilized antigen was measured. For the binding activity, the range of absorbance from 0.5 to 1.0 is represented by “+”, from 1.0 to 2.0 by “++”, the range more than 2.0 by “+++”. The competitive test with F1232-37-2 was performed as follows. That is, according to the method by Nakane et al. (J. Histochem. Cytochem., 22, 1084, 1974), peroxidase (TOYOBO)-labeled F1232-37-2 antibody was prepared and an antibody concentration was calculated from the amount of the antibody used.

[7] = target: T1, human GPVI extracellular region-human …; test: ELISA, collagen on plate, hGPVI-hFc plus antibody; +++ more than 50%, ++ 30-50%, + 10-30% inhibition
[8] = target: T1, human GPVI extracellular region-human …; test: competition ELISA on hGPVI-hFc plate; competitor: peroxidase-labelled F1232-37-2; +++ more than 50%, ++ 30-50%, + 10-30% inhibition
Protocol: as §2
Next, by using the peroxidase-labeled antibody, the competitive test for a variety of purified antibody was performed. That is, 25 μL of the above labeled antibody and 25 μL of each purified antibody were added to well of hGP-hFc-immobilized plate. After incubation at 37° C. for one hour, the well was washed five times with the saline containing 0.05% Tween20, and the reaction mixture was developed with TMB solution (BioFix). After incubation at room temperature for 10 minutes, the reaction was terminated with 0.5 M sulfuric acid solution and an absorbance at 450 nm was measured with the plate spectrophotometer (Multi-Scan JX, Dainippon Pharmaceutical).

T2 sequence (chain, as listed by the source mutant limits assumed): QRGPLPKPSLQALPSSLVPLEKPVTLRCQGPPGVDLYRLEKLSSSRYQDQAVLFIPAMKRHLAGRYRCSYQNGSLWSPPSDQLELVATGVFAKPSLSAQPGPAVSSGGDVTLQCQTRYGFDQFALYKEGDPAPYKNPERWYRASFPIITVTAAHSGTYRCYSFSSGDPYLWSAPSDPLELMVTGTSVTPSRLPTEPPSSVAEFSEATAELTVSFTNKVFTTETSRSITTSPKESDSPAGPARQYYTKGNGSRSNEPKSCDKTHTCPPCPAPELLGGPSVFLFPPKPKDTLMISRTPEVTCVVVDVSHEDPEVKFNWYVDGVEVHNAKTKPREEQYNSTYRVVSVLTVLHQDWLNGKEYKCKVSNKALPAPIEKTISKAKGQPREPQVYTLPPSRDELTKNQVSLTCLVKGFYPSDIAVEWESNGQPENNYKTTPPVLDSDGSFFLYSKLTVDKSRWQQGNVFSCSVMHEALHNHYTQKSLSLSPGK
T1 sequence (chain, as listed by the source limits assumed): as the sequence (chain, as listed by the source mutant limits assumed) above, with R2S, H61S, P78L, G166R, M181V, S442P counted along it

| Binder | Kd [1] [nM] | Kd [2] [nM] | other results |
| --- | --- | --- | --- |
| F1232-7-1 (antibody, V domains shown, Mouse hybridoma monoclonal antibody; also called F1232-7-1 antibody) VH: VQLQQSGPELVRPGESVKISCKGSGYTFTDYAIHWVKLSHAKSLEWIGVISIYYDDTNYNQKFKGKATMTVDKSSSTAYMELARLTSEDSAIYYCARRRDSSGPYAMDYWGQGTSVTVSS VL: DIVLTQSPASLAVSLGQRATISCRASESVDSYGNSFMHWYQQKPGQPPKLLIYRASNLESGIPARFSGSGSRTDFTLTINPVEADDVATYYCQQSNEDPYTFGGGTKLEIKR | 34.7 | 343 |  |
| PEGylated F1232-37-2 antibody (antibody, V domains shown, linear PEG of 20 KD coupled through a succinimide group; sites not stated, Whole mouse F1232-37-2 reacted with PEG at antibody:PEG 1:10 (molar) and purified on Q Sepharose HP; also called F1232-37-2 PEGylated antibody) VH: VQLQQSGPELVRPGESVKISCKGSGYTFTDYAIHWVKLSHAKSLEWIGVISIYYDDTNYNQKFKGKATMTVDKSSSTAYLELARLTSEDSAIYYCARRRDSSGPYAMDYWGQGTSVTVSS VL: DIVLTQSPASLAVSLGQRATISCRASESVDSYGNSFMHWYQQKPGQPPKLLIYRASNLESGIPARFSGSGSRTDFTLTINPVEADDVATYYCQQSNEDPYTFGGGTKLEIKR |  |  | EC50 (read off the curve) [3]: ~20 ng/mL |
| PEG-F1232-372Fab (Fab, V domains shown, linear 20 KD PEG with succinimide group; sites not given ; Linear 20 KD PEG with succinimide group coupled to the Fab; sites and number not given., also called PEGylated F1232-37-2 Fab antibody; PEGylated F1232-37-2Fab fragment; copies: 1 + 1) VH: VQLQQSGPELVRPGESVKISCKGSGYTFTDYAIHWVKLSHAKSLEWIGVISIYYDDTNYNQKFKGKATMTVDKSSSTAYLELARLTSEDSAIYYCARRRDSSGPYAMDYWGQGTSVTVSS VL: DIVLTQSPASLAVSLGQRATISCRASESVDSYGNSFMHWYQQKPGQPPKLLIYRASNLESGIPARFSGSGSRTDFTLTINPVEADDVATYYCQQSNEDPYTFGGGTKLEIK |  |  | EC50 (read off the curve) [4]: ~300 ng/mL |
| F1201-18 (antibody, V domains shown, Mouse hybridoma monoclonal antibody) VH: VQLVESGGGLVKPGGSLKLSCAASGFTFSSYAMSWVRQTPEKRLEWVAIISSGGSYTYYPDSVKGRFTISRDNAKNTLYLHMSSLRSEDTAMYYCARQGGGYFDYWGQGTTLTVSS VL: DIVLTQSPASLAVSLGQRATISCRASESVDSYGNSFMHWYQQKPGQPPKLLIYRASNVESGIPARFSGSGSRTDFTLTINPVEADDVATYYCQQSNEDPPTFGAGTKLELKR | 1.16 | 0.619 |  |
| F1232-17-1 (antibody, V domains shown, Mouse hybridoma monoclonal antibody) VH: VQLVESGGDLVKPGGSLKLSCAASGFTFSSYGMSWVRQTPDKRLEWVATISSGGSYTYYPDNVKGRFTISRDNAKNTLYLQMSSLNSEDTAMYYCARQVYYFGSCDYWGQGTTLTVSS VL: DIVLTQSPASLAVSLGQRATISCRASESVDNYGISFMHWYQQKPGQPPKLLIYRASNLESGIPARFSGSGSRTDFTLTINPVETDDVATYYCQQSNKDPWTFGGGTKLEIKR | 0.522 | 0.177 |  |
| F1232-18-3 (antibody, V domains shown, Mouse hybridoma monoclonal antibody) VH: VMLVESGGGLVKPGGSLKLSCAASGFTFSSYAMSWVRQTPEKRLEWVATISSGGSYTYYPDSVKGRFTISRDNAKNTLYLQMSSLRSADTAMYYCARDYGYFDYWGQGTTLTVSS VL: DIVLTQSPASLAVSLGQRATISCRASESVDNYGISFMHWYQQKPGQPPKLLFYRASNLESGIPARFSGSGSRTDFTLTINPVETDDVATYYCQQSNTDPRTFGGGTKLEIKR | 1.65 | 365 |  |
| F1245-6-2 (antibody, V domains shown) VH: QVQLQQPGAELVKPGASVKLSCKASGYTFTSYWMHWVKQRPGQGLEWIGMIHPNSGSTNYNEKFKSKATLTVDKSSSTAYMQLSSLTSEDSAVYYCARGGVTPVAYWGQGTLVTVSA VL: SIVMTQTPKFLLVSAGDRVTITCKASQSVSNDVAWYQQKPGQSPKLLIYYASNRYTGVPYRFTGSGYGTDFTFTISTVQAEDLAVYFCQQDYSSPWTFGGGTKLEIKR |  |  | absorbance [5]: ≥ 1 absorbance; absorbance [6]: 1 to 2 od; percent inhibition [7]: 10 to 30%; percent inhibition [8]: > 50% |
| F1232-24-1 (antibody, V domains shown, Mouse hybridoma monoclonal antibody) VH: VQLQQSGAELVRPGVSVKISCKGSGYTFTDYAMHWVKQSHAKSLEWIGVISTYYGDASYNQKFKGKATMTVDKSSSTAYMELARLTSEDSAIYYCARSYDYDPWFAYWGQGTLVTVSA VL: DIVLTQSPASLAVSLGQRATISCRASESVDNYGISFMHWYQQKPGQPPKLLIYRASNLESGIPARFSGSGSRTDFTLTINPVETDDVATYYCQQSNKDPLTFGAGTKLELKR | 0.25 | 0.71 |  |
